B1: wild type anti-AIP2 antibody E7 (antibody, V domains shown)
VH: EVQLVQSGAEVKKPGASVRVSCKTSGYSFTSYDINWVRQTTGQGLEWMGWVNPTSGSTGYAQKFQGRVTMTANTAINTAYMELRDLRSEDTAVYFCVRDVPFDPWGQGTLVTVSS
VL: QSVLTQPASVSGSPGQSITISCTGTSSDVGKYTFVSWYQQHPGKAPKVMVYEVNKRPLGVSPRFSGSKSGNTAYLTISGLQAEDEADYYCSSYTSSSTVVFGGGTKLTVL
B2: variant anti-AIP2 antibody X18 (antibody, V domains shown)
VH: B1 VH with F29G, F102V
VL: B1 VL with T94A
B3: variant anti-AIP2 antibody X12 (antibody, V domains shown)
VH: B1 VH with E1Q, S31V, F102V, L110T
VL: B1 VL with T33L

Substitutions are numbered along the chain they refer to.

The assay has as its target Staphylococcus aureus autoinducing peptide-2 (AIP2) (Staphylococcus aureus). As to the kind of experiment: SPR, BiaCore T200.
Take B1: the Ka stood at 1.85e+07 M⁻¹, the Kd was found to be 53.9 nM, the koff was determined as 0.027 s⁻¹ and the on-rate constant (kon) amounted to 501000 M⁻¹ s⁻¹.

On to B2, for which the Ka was 2.85e+07 M⁻¹, the Kd was 35 nM, the koff amounted to 0.02 s⁻¹ and the association rate constant (kon) worked out at 570000 M⁻¹ s⁻¹.

In turn, B3 showed a Ka of 1.54e+07 M⁻¹, a Kd of 64.9 nM, a koff of 0.012 s⁻¹ and a kon of 186000 M⁻¹ s⁻¹.

Source of the values: US20190194300A1.
